# B1: Gamma-aminobutyric acid receptor-associated protein (Homo sapiens), O95166 (parent)
# chain: MKFVYKEEHPFEKRRSEGEKIRKKYPDRVPVIVEKAPKARIGDLDKKKYLVPSDLTVGQFYFLIRKRIHLRAEDALFFFVNNVIPPTSATMGQLYQEHHEEDFFLYIAYSDESVYGL
# partner: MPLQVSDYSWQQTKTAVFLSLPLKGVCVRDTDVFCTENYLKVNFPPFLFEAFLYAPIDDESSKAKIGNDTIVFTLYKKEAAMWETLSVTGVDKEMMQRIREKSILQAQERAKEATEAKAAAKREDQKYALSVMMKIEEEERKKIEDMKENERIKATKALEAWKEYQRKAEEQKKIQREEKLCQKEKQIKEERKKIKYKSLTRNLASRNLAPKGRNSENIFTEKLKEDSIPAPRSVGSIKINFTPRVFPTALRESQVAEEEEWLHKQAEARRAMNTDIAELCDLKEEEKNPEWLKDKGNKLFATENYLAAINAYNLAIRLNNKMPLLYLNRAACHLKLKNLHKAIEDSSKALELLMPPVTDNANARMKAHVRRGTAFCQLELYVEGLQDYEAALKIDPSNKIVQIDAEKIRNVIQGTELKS
# B2: Gamma-aminobutyric acid receptor-associated protein (Homo sapiens), O95166 (parent)
# chain: B1 chain
# partner: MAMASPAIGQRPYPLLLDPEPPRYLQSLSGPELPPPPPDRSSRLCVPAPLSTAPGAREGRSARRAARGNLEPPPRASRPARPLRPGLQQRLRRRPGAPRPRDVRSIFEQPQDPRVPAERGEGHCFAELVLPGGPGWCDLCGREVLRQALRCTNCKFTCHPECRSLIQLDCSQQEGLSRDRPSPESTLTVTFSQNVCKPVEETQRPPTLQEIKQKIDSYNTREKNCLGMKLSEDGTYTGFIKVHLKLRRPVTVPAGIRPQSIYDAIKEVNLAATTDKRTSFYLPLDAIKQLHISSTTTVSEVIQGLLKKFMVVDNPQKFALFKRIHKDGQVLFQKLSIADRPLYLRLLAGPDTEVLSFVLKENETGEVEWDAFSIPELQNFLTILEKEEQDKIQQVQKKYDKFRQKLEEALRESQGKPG
# B3: Gamma-aminobutyric acid receptor-associated protein (Homo sapiens), O95166 (parent)
# chain: B1 chain
# partner: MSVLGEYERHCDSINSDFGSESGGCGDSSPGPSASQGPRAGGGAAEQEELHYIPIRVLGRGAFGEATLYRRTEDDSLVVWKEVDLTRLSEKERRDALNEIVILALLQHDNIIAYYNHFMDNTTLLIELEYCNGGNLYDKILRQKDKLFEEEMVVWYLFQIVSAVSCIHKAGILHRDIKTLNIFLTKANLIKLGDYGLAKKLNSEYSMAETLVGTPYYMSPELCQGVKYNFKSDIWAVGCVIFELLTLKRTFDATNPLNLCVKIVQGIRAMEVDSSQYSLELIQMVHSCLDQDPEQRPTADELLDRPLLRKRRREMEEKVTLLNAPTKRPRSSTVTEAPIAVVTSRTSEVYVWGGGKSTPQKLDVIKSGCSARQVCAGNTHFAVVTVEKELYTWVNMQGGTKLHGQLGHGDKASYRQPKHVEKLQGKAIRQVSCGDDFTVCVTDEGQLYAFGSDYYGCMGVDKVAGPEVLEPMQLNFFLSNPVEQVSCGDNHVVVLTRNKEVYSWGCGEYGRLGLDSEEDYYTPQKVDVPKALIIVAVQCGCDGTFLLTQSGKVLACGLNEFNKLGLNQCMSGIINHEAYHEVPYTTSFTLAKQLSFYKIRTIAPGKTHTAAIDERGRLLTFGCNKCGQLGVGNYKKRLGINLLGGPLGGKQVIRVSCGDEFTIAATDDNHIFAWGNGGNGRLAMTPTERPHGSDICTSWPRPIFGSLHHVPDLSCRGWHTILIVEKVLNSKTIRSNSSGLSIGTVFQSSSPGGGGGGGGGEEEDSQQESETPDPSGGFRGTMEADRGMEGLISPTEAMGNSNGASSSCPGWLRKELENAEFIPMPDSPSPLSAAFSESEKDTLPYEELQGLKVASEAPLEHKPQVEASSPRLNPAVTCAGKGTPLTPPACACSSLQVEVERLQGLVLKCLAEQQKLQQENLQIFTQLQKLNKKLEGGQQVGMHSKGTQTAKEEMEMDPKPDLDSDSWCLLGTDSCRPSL
# B4: Gamma-aminobutyric acid receptor-associated protein (Homo sapiens), O95166 (parent)
# chain: B1 chain
# partner: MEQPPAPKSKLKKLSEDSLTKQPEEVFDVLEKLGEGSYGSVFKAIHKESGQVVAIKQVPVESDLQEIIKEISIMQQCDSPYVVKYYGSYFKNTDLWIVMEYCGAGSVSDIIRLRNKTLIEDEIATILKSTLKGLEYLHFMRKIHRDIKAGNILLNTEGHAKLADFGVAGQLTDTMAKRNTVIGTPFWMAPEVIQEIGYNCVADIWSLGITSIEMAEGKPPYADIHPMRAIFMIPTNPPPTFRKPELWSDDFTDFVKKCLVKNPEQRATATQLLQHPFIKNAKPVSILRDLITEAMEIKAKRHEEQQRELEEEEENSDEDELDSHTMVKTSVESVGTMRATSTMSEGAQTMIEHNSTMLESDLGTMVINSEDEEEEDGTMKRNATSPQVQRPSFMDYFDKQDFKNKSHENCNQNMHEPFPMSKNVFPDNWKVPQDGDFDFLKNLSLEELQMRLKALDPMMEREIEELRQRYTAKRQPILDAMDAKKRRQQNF
# B5: Gamma-aminobutyric acid receptor-associated protein (Homo sapiens), O95166 (parent)
# chain: B1 chain
# partner: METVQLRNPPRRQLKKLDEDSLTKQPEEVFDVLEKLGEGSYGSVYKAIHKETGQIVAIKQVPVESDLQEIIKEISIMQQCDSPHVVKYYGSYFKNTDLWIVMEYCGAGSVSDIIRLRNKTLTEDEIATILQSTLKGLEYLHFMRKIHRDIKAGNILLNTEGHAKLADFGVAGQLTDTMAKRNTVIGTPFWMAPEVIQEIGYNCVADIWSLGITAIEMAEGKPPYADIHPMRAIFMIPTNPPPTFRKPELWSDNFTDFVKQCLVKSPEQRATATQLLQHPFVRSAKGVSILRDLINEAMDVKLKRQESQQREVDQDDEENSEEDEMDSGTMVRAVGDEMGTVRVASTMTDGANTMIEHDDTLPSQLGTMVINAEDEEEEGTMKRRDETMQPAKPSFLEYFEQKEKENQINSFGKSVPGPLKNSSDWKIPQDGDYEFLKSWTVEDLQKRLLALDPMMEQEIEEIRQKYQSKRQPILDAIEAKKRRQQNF
# B6: Gamma-aminobutyric acid receptor-associated protein (Homo sapiens), O95166 (parent)
# chain: B1 chain
# partner: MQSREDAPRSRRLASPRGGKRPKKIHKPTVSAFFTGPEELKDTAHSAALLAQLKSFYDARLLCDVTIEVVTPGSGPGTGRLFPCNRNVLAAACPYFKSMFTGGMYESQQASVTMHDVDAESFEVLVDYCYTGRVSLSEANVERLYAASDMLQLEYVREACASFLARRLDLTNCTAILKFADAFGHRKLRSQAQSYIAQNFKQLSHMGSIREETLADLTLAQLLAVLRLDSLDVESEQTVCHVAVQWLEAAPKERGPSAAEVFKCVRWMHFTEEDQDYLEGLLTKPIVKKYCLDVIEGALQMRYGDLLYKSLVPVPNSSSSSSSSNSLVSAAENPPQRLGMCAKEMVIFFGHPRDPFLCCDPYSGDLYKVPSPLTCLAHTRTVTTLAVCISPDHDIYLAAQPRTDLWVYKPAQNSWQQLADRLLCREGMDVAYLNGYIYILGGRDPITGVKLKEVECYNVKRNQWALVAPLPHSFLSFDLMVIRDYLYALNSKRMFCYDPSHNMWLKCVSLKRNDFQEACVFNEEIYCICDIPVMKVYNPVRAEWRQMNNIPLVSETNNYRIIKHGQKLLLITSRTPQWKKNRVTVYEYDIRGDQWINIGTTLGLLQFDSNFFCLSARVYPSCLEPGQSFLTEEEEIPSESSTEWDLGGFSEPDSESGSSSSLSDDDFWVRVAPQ
# B7: Gamma-aminobutyric acid receptor-associated protein (Homo sapiens), O95166 (parent)
# chain: B1 chain
# partner: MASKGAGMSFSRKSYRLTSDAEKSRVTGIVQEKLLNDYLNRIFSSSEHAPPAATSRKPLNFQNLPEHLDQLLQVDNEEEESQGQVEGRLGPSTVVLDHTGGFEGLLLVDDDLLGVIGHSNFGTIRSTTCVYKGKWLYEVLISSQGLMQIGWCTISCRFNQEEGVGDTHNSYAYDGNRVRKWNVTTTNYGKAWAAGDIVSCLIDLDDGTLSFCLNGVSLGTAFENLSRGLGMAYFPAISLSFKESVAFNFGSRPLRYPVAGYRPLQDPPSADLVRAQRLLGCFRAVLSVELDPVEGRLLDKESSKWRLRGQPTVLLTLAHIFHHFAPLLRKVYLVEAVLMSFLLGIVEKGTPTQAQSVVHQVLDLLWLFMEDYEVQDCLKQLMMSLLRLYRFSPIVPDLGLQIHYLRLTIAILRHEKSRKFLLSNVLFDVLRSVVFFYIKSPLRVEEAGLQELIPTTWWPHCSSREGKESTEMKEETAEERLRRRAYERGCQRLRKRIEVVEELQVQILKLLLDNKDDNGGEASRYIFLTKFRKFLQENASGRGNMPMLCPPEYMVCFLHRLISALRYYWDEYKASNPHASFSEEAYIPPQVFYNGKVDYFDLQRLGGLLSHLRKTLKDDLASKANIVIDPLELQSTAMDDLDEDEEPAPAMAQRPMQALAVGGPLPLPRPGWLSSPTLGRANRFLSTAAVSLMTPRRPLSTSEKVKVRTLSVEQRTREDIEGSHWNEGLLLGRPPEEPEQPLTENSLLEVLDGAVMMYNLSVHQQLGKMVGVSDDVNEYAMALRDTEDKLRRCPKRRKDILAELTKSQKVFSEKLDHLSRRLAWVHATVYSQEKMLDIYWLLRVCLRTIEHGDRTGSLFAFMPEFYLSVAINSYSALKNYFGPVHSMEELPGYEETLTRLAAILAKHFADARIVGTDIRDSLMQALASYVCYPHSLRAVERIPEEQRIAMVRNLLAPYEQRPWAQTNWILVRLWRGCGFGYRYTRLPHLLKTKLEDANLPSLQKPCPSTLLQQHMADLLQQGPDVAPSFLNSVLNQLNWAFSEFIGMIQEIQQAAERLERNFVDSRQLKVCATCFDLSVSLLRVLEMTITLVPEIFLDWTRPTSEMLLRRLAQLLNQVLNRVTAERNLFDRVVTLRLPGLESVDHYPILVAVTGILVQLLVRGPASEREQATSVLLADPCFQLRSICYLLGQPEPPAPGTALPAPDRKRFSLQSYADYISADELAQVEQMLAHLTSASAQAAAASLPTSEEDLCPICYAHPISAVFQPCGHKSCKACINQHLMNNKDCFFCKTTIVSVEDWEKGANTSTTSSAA
# Variants of: B1
# Conditions: with daaf4_human DNAAF4, Q8WXU2
row,effect of a mutation on the interaction,Variant
1,decreasing interaction,Y49A;L50A

# Variants of: B2
# Conditions: with rasf5_human RASSF5, Q8WWW0
row,effect of a mutation on the interaction,Variant
1,increasing interaction,Y49A;L50A

# Variants of: B3
# Conditions: with nek9_human NEK9, Q8TD19
row,Variant,effect of a mutation on the interaction
1,Y49A;L50A,decreasing interaction

# Variants of: B4
# Conditions: with stk3_human STK3, Q13188
row,effect of a mutation on the interaction,Variant
1,decreasing interaction,Y49A;L50A

# Variants of: B5
# Conditions: with stk4_human STK4, Q13043
row,effect of a mutation on the interaction,Variant
1,increasing interaction,R71A

# Variants of: B6
# Conditions: with kbtb6_human KBTBD6, Q86V97
row,effect of a mutation on the interaction,Variant
1,decreasing interaction,Y49A;L50A

# Variants of: B7
# Conditions: with rn123_human RNF123, Q5XPI4
row,effect of a mutation on the interaction,Variant
1,decreasing interaction,Y49A;L50A

# — IntAct's records for PubMed 20562859
